{"source": "patent US20150086555A1", "conditions_in_all_cases": "remark: other sources report otherwise", "key": {"[1]": {"biological_target": "recombinant soluble homotrimeric HA of A/Hong Kong/2108/03 (H9N2) (Influenza A virus A/HK/2108/2003(H9N2))", "assay": "HA microarray, BCC supernatant"}, "[2]": {"biological_target": "recombinant soluble homotrimeric HA of A/Wisconsin/67/05 (H3N2) (Influenza A virus A/Wisconsin/67/2005(H3N2))", "assay": "HA microarray, BCC supernatant"}, "[3]": {"biological_target": "recombinant soluble homotrimeric HA of A/Vietnam/1203/04 (H5N1) (Influenza A virus A/VietNam/1203/2004(H5N1))", "assay": "HA microarray, BCC supernatant"}, "[4]": {"biological_target": "recombinant soluble homotrimeric HA of A/Anhui/1/05 (H5N1) (Influenza A virus A/Anhui/1/2005(H5N1))", "assay": "HA microarray, BCC supernatant"}, "[5]": {"biological_target": "recombinant soluble homotrimeric HA of A/Netherlands/219/03 (H7N7) (Influenza A virus A/Netherlands/219/03(H7N7))", "assay": "HA microarray, BCC supernatant"}, "[6]": {"biological_target": "recombinant soluble homotrimeric HA of A/duck/Yangzhou/02/05 (H8N4) (Influenza A virus A/duck/Yangzhou/02/2005(H8N4))", "assay": "HA microarray, BCC supernatant"}, "[7]": {"biological_target": "recombinant soluble homotrimeric HA of A/Solomon Islands/3/06 (H1N1) (Influenza A virus A/Solomon Islands/3/2006(H1N1))", "assay": "HA microarray, BCC supernatant"}, "[8]": {"biological_target": "recombinant soluble homotrimeric HA of A/Japan/305/57 (H2N2) (Influenza A virus A/Japan/305/1957(H2N2))", "assay": "HA microarray, BCC supernatant"}, "[9]": {"biological_target": "recombinant soluble homotrimeric HA of A/Indonesia/5/05 (H5N1) (Influenza A virus A/Indonesia/5/2005(H5N1))", "assay": "HA microarray, BCC supernatant"}, "[10]": {"biological_target": "recombinant soluble homotrimeric HA of A/Egypt/3300-NAMRU3/08 (H5N1) (Influenza A virus A/Egypt/3300-NAMRU3/2008(H5N1))", "assay": "HA microarray, BCC supernatant"}, "[11]": {"biological_target": "recombinant soluble homotrimeric HA of A/California/4/09 (H1N1) (Influenza A virus A/California/04/2009(H1N1))", "assay": "HA microarray, BCC supernatant"}, "[12]": {"biological_target": "hemagglutinin (HA) of influenza A/Japan/305/57 (H2N2) on whole virions (Influenza A virus A/Japan/305/1957(H2N2)), P03451", "assay": "ELISA; BCC supernatant on coated inactivated whole virions"}, "[13]": {"biological_target": "recombinant homotrimeric HA A/Solomon Islands/3/06 H1N1 (Influenza A virus A/Solomon Islands/3/2006(H1N1))", "assay": "protein microarray, purified IgG, trimeric HA"}, "[14]": {"biological_target": "recombinant homotrimeric HA A/Egypt/3300-NAMRU3/08 H5N1 (Influenza A virus A/Egypt/3300-NAMRU3/2008(H5N1))", "assay": "protein microarray, purified IgG, trimeric HA"}, "[15]": {"biological_target": "recombinant homotrimeric HA A/Japan/305/57 H2N2 (Influenza A virus A/Japan/305/1957(H2N2))", "assay": "protein microarray, purified IgG, trimeric HA"}, "[16]": {"biological_target": "recombinant homotrimeric HA A/Anhui/1/05 H5N1 (Influenza A virus A/Anhui/1/2005(H5N1))", "assay": "protein microarray, purified IgG, trimeric HA"}, "[17]": {"biological_target": "recombinant homotrimeric HA A/Vietnam/1203/04 H5N1 (Influenza A virus A/VietNam/1203/2004(H5N1))", "assay": "protein microarray, purified IgG, trimeric HA"}, "[18]": {"biological_target": "recombinant homotrimeric HA A/Netherlands/219/03 H7N7 (Influenza A virus A/Netherlands/219/03(H7N7))", "assay": "protein microarray, purified IgG, trimeric HA"}, "[19]": {"biological_target": "recombinant homotrimeric HA A/South Carolina/1/18 H1N1 (Influenza A virus A/South Carolina/1/18 (H1N1))", "assay": "protein microarray, purified IgG, trimeric HA"}, "[20]": {"biological_target": "recombinant homotrimeric HA A/California/4/09 H1N1 (Influenza A virus A/California/04/2009(H1N1))", "assay": "protein microarray, purified IgG, trimeric HA"}, "[21]": {"biological_target": "recombinant homotrimeric HA A/Indonesia/5/05 H5N1 (Influenza A virus A/Indonesia/5/2005(H5N1))", "assay": "protein microarray, purified IgG, trimeric HA"}, "[22]": {"biological_target": "recombinant homotrimeric HA A/Hong Kong/156/97 H5N1 (Influenza A virus A/Hong Kong/156/97 (H5N1))", "assay": "protein microarray, purified IgG, trimeric HA"}, "[23]": {"biological_target": "recombinant soluble homotrimeric HA, A/Hong Kong/156/97 H5N1 (Influenza A virus A/Hong Kong/156/97 (H5N1))", "assay": "microarray, transfection SN IgG, trimeric HA"}, "[24]": {"biological_target": "recombinant soluble homotrimeric HA, A/Japan/305/57 H2N2 (Influenza A virus A/Japan/305/1957(H2N2))", "assay": "microarray, transfection SN IgG, trimeric HA"}, "[25]": {"biological_target": "recombinant soluble homotrimeric HA, A/Vietnam/1203/04 H5N1 (Influenza A virus A/VietNam/1203/2004(H5N1))", "assay": "microarray, transfection SN IgG, trimeric HA"}, "[26]": {"biological_target": "recombinant soluble homotrimeric HA, A/South Carolina/1/18 H1N1 (Influenza A virus A/South Carolina/1/18 (H1N1))", "assay": "microarray, transfection SN IgG, trimeric HA"}, "[27]": {"biological_target": "recombinant soluble homotrimeric HA, A/Solomon Islands/3/06 H1N1 (Influenza A virus A/Solomon Islands/3/2006(H1N1))", "assay": "microarray, transfection SN IgG, trimeric HA"}, "[28]": {"biological_target": "recombinant soluble homotrimeric HA, A/Anhui/1/05 H5N1 (Influenza A virus A/Anhui/1/2005(H5N1))", "assay": "microarray, transfection SN IgG, trimeric HA"}, "[29]": {"biological_target": "recombinant soluble homotrimeric HA, A/California/4/09 H1N1 (Influenza A virus A/California/04/2009(H1N1))", "assay": "microarray, transfection SN IgG, trimeric HA"}}, "data": [{"binder": "TCN-551 (5243_D01) (antibody, V domains shown) VH: EVQLVQSGSEVKKPGESLKISCKGSGYSFSNYWIGWVRHMPGKGLEWMGIIYPGDSDTRYSPSFQGQVTMSADKSSSTVYLQWSSLKASDTAIYYCARRGGHSFGYGSGGDTHSEFDSWGQGTLVTVSS VL: QSVLTQSPSVSAAPGQKVTISCSGSDSNIGDYFVCWYQHLPGKPPQLLIYENNKRPSGIPDRFSGSKSGTSATLGITGIQTGDEADYYCATWDGSLSAWVFGGGTKLTVL", "values": [{"measurement": "Trimeric HA Binding: RLU", "setting": "[1]", "result": 224, "unit": "RLU"}, {"measurement": "Trimeric HA Binding: RLU", "setting": "[2]", "result": 6840, "unit": "RLU"}, {"measurement": "Trimeric HA Binding: RLU", "setting": "[3]", "result": 4150, "unit": "RLU"}, {"measurement": "Trimeric HA Binding: RLU", "setting": "[4]", "result": 4190, "unit": "RLU"}, {"measurement": "Trimeric HA Binding: RLU", "setting": "[5]", "result": 786, "unit": "RLU"}, {"measurement": "Trimeric HA Binding: RLU", "setting": "[6]", "result": 9820, "unit": "RLU"}, {"measurement": "Trimeric HA Binding: RLU", "setting": "[7]", "result": 53800, "unit": "RLU"}, {"measurement": "Trimeric HA Binding: RLU", "setting": "[8]", "result": 22600, "unit": "RLU"}, {"measurement": "Trimeric HA Binding: RLU", "setting": "[9]", "result": 53500, "unit": "RLU"}, {"measurement": "Trimeric HA Binding: RLU", "setting": "[10]", "result": 47200, "unit": "RLU"}, {"measurement": "Trimeric HA Binding: RLU", "setting": "[11]", "result": 53400, "unit": "RLU"}, {"measurement": "ELISA virus binding (OD450)", "setting": "[12]", "result": 0.19, "unit": "OD450"}, {"measurement": "Trimeric HA Binding: RLU", "setting": "[13]", "result": 25000, "unit": "RLU"}, {"measurement": "Trimeric HA Binding: RLU", "setting": "[14]", "result": 907, "unit": "RLU"}, {"measurement": "Trimeric HA Binding: RLU", "setting": "[15]", "result": 1600, "unit": "RLU"}, {"measurement": "Trimeric HA Binding: RLU", "setting": "[16]", "result": 6640, "unit": "RLU"}, {"measurement": "Trimeric HA Binding: RLU", "setting": "[17]", "result": 2950, "unit": "RLU"}, {"measurement": "Trimeric HA Binding: RLU", "setting": "[18]", "result": 1670, "unit": "RLU"}, {"measurement": "Trimeric HA Binding: RLU", "setting": "[19]", "result": 10300, "unit": "RLU"}, {"measurement": "Trimeric HA Binding: RLU", "setting": "[20]", "result": 19400, "unit": "RLU"}, {"measurement": "Trimeric HA Binding: RLU", "setting": "[21]", "result": 296, "unit": "RLU"}, {"measurement": "Trimeric HA Binding: RLU", "setting": "[22]", "result": 824, "unit": "RLU"}, {"measurement": "Trimeric HA Binding: RLU", "setting": "[23]", "result": 792, "unit": "RLU"}, {"measurement": "Trimeric HA Binding: RLU", "setting": "[24]", "result": 25200, "unit": "RLU"}, {"measurement": "Trimeric HA Binding: RLU", "setting": "[25]", "result": 41900, "unit": "RLU"}, {"measurement": "Trimeric HA Binding: RLU", "setting": "[26]", "result": 4340, "unit": "RLU"}, {"measurement": "Trimeric HA Binding: RLU", "setting": "[27]", "result": 43500, "unit": "RLU"}, {"measurement": "Trimeric HA Binding: RLU", "setting": "[28]", "result": 2640, "unit": "RLU"}, {"measurement": "Trimeric HA Binding: RLU", "setting": "[29]", "result": 46100, "unit": "RLU"}]}]}
